Experimental data taken from article PMC9403545, “Structure based design of effective HtpG-derived vaccine antigens against M. tuberculosis” (Frontiers in Molecular Biosciences, 2022).

Target: HtpGMtb_C (C-terminal domain of HtpGMtb, wild type) (M. tuberculosis H37Rv)
Test: SEC-MALS

Sequence of HtpGMtb_C (C-terminal domain of HtpGMtb, wild type) (domain or fragment) (A1KKZ1 417-645 limits assumed): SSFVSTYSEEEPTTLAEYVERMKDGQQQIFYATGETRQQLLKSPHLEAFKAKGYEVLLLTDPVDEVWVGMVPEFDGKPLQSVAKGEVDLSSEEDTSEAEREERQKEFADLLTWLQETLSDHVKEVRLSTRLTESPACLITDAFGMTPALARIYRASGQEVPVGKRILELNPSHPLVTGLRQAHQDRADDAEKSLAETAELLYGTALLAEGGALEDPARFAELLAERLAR

Q: How did the stoichiometry N turn out when “HtpGMtb_C (C-terminal domain of HtpGMtb, wild type) (domain or fragment)” was run?
A: 2
